These results are taken from US20260028418A1 (GC CELL, published 2026).

First the molecules themselves.
T1: HER4 (R&D Systems, #1131-ER-050) (human, UniProt Q15303 26-651)
T1 construct: extracellular domain; Bought
T1 sequence (looked up): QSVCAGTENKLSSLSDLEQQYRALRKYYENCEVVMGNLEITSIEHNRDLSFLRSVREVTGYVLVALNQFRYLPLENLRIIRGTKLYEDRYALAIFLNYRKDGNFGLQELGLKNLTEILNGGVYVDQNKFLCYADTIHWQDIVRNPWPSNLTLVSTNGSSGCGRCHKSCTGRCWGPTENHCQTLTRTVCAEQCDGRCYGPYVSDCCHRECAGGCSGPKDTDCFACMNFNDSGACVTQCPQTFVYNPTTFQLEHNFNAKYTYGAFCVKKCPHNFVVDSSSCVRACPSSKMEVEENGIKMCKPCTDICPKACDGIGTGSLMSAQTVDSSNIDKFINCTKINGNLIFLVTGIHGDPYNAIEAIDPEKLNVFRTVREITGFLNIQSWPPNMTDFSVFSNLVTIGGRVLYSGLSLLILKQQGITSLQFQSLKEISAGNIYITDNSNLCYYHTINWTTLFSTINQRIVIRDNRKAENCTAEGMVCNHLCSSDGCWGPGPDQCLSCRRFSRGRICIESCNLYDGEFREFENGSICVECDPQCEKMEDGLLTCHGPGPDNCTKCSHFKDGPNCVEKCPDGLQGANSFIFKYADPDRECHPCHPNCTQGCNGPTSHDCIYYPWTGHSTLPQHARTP

B1: 24D3 (antibody, V domains shown)
VH: EVKLVESGGGLVKPGGSLKLSCAASGFTFSSCAMSWVRQTPEKRLEWVATISGGGSYTYYPDSVKGRFTISRDNAKNTLYLQMSSLRSEDTAMYYCARHGGYESWFPYWGQGTLVTVSA
VL: DIVMTQSPLSLPVSLGDQASISCRSSQSLVHSNGNTYLHWYLQKPGQSPKLLIYKVSNRFSGVPDRFSGSGSGTDFTLKISRVEAEDLGVYFCSQSTHVPPWTFGGGTKLEIK
B2: hz39D2 (antibody, V domains shown)
VH: QVQLVQSGSELKKPGASVKVSCKASGYTFTNYGVNWVRQAPGQGLEWMGWINTHTGEPTYAEEFKGRFVFSLDTSVSTAYLQISSLKAEDTAVYYCARDDYYVRVDYWGQGTTVTVSS
VL: DIQMTQSPSSLSASVGDRVTITCKASQDINSYLSWFQQKPGKAPKTLIYRANRLVDGVPSRFSGSGSGQDYTLTISSLQPEDFATYYCLQYDEFPWTFGQGTKVEIK
notes: Humanized antibody, captured as IgG by anti-human IgG in SPR; also called humanized 39D2 antibody
B3: hz2G10 (antibody, V domains shown)
VH: EVQLVESGGGLVQPGGSLRLSCAASGFTFSDYYMYWVRQAPGKGLEWVAYINSGGGSTYYPDTVKGRFTISRDNAKNSLYLQMNSLRAEDTAVYYCAREALYDYDYAMDYWGQGTTVTVSS
VL: DIVMTQSPLSLSVTPGQPASISCKSSQSLLYSNGKTYLNWLLQKPGQSPQRLIYLVSKLDSGVPDRFSGSGSGTDFTLKISRVEAEDVGVYYCVQGTHFPLTFGGGTKVEIK
notes: Humanized antibody, detected with anti-human IgG-HRP; Only the variable domains are tied to the name; also called humanized 2G10 antibody
B4: hz39D2.23 (antibody, human IgG1, kappa, V domains shown)
VH: B2 VH with D100E
VL: DIQMTQSPSSLSASVGDRVTITCKASQDINSYLSWFQQKPGKAPKTLIYRANRLVDGVPSRFSGSGSGQDYTLTISSLQPEDFATYYCLQLDEFPWTFGQGTKVEIKR
B5: hz39D2.14 (antibody, V domains shown)
VH: B2 VH with D100E, V105T
VL: B2 VL
B6: hz39D2.22 (antibody, V domains shown)
VH: B2 VH with D100E
VL: B2 VL with Q90E, Y91L

Where a chain is given by its changes, count along the chain named.

As a reminder, the Kd is the free concentration of one partner at which half of the binding sites on the other are occupied at equilibrium, for simple one-to-one binding. As usually defined, the koff is the first-order rate constant of dissociation. High values mean a short-lived complex, low ones a long-lived complex. The term kon denotes the second-order rate constant of association. Read a low kon as slow association.

The target of the first assay is T2, HER2-ECD-Fc (human, UniProt P04626 23-652).
T2 construct: extracellular domain; Produced in FreeStyle 293F cells; also called HER2-ECD Fc fusion protein
As to the kind of experiment: ELISA on HER2-ECD-Fc; antibody at 5 µg/mL. Background: An ELISA detects its analyte on a solid surface through an enzyme-linked reagent.
B1: the absorbance is 2.92.

As to B2, the absorbance came to 2.9.

Turning to B3, the absorbance worked out at 2.79.

The target of a further assay is T2, HER2-ECD-Fc. In words: ELISA on HER2-ECD-Fc; antibody at 50 µg/mL.
B1 yielded an absorbance of 2.75.

With B2, the absorbance came out at 2.83.

Take B3: the absorbance was 2.81.

The target of another assay is T2, HER2-ECD-Fc. In words: ELISA on HER2-ECD-Fc; antibody at 5 × 10^-1 µg/mL.
The molecule B1 came in with an absorbance of 2.9.

Molecule B2 yielded an absorbance of 2.78.

The molecule B3 displayed an absorbance of 2.69.

A further assay has as its target T2, HER2-ECD-Fc. As to the kind of experiment: ELISA on HER2-ECD-Fc; antibody at 5 × 10^-2 µg/mL.
Consider B1, for which the absorbance turned out to be 2.76.

Molecule B2 came in with an absorbance of 2.92.

Molecule B3 had an absorbance of 1.16.

A further assay deals with T2, HER2-ECD-Fc. In words: ELISA on HER2-ECD-Fc; antibody at 5 × 10^-3 µg/mL.
For the molecule B1, the absorbance was determined as 1.13.

The molecule B2 returned an absorbance of 2.29.

For the molecule B3, the absorbance was found to be 0.22.

Another assay addresses T2, HER2-ECD-Fc. As to the kind of experiment: ELISA on HER2-ECD-Fc; antibody at 5 × 10^-4 µg/mL.
In turn, B1 showed an absorbance of 0.22.

For B2, the absorbance came out at 0.47.

For the molecule B3, the absorbance stood at 0.12.

The next assay addresses T2, HER2-ECD-Fc. In words: ELISA on HER2-ECD-Fc; antibody at 5 × 10^-5 µg/mL.
As for B1, the absorbance came to 0.12.

Regarding B2, the absorbance was found to be 0.15.

For B3, the absorbance was found to be 0.12.

The target of a further assay is T2, HER2-ECD-Fc. As to the kind of experiment: ELISA on HER2-ECD-Fc; antibody at 5 × 10^-6 µg/mL.
Molecule B1 yielded an absorbance of 0.11.

For B2, the absorbance was found to be 0.12.

B3: the absorbance came to 0.12.

The next assay concerns the target T2, HER2-ECD-Fc. In words: ELISA on HER2-ECD-Fc; antibody at 5 × 10^-7 µg/mL.
B1 had an absorbance of 0.11.

Take B2: the absorbance was found to be 0.12.

Molecule B3 showed an absorbance of 0.12.

A further assay addresses T3, HER2-ECD-His (human, UniProt P04626 23-652).
T3 construct: extracellular domain; also called HER2-His; HER2-ECD-His protein; not shown: His tag
As to the kind of experiment: SPR (Biacore, CM5), IgG captured by anti-human IgG, HER2-ECD-His as analyte. The protocol:
2000 RU of goat anti-human IgG (Invitrogen, #H10500) was immobilized onto a CM5 sensor chip by […]. Then, the antibodies were allowed to bind at a rate of 50 μL/min for 5 minutes and then stabilized for 5 minutes by flowing a buffer. After stabilizing the antibodies, the HER2-ECD-His protein was allowed to bind at a rate of 50 μL/min for 4 minutes and then separated by flowing a buffer for 15 minutes. After analyzing the concentration, the resultant was recycled using 10 mM glycine (pH 1.5) and then subjected to the subsequent assay. The affinity of the antibodies was analyzed using the BIAevaluation software.
On the technique in general: Surface plasmon resonance follows binding to a sensor surface in real time, without labels.
Take B2: binding was put at a Kd of 37 nM, the koff came to 0.0025 s⁻¹ and the kon was 68000 M⁻¹ s⁻¹.

B4: the Kd amounted to 2.8 nM, the koff came to 0.0002 s⁻¹ and the kon came to 71000 M⁻¹ s⁻¹.

The molecule B5 gave a Kd of 8 nM, a koff of 0.0003 s⁻¹ and a kon of 37000 M⁻¹ s⁻¹.

For B6, the Kd came out at 2 nM, the koff came to 0.00016 s⁻¹ and the kon was 81000 M⁻¹ s⁻¹.

For the next assay, the target named is T4, EGFR-ECD-Fc (human, UniProt P00533 25-645).
T4 construct: extracellular domain; also called extracellular domain of EGFR; not shown: Hinge and Fc region (CH2-CH3) of human IgG1; The protein was produced in the same manner as HER2-ECD-Fc
In words: ELISA on ErbB family extracellular domains, Absorbance at 450 nm; antibody concentration not given. An excerpt:
(§1) It was investigated whether the developed five antibodies of the present disclosure specifically bind to HER2 belonging to the ErbB family proteins by ELISA.
Consider B1, for which the binding result was “no binding”.

As to B2, the binding result is given as “no binding”.

With B3, the binding result is listed as “no binding”.

A further assay has as its target T5, HER3 (R&D Systems, #348-RB-050) (human, UniProt P21860 20-643).
T5 construct: extracellular domain; Bought
The assay is described as above.
Source text: as §1
In the case of B1, the binding result is given as “no binding”.

As for B2, the binding result is on record as “no binding”.

For B3, the binding result is recorded as “no binding”.

The next assay concerns the target T1, HER4 (R&D Systems, #1131-ER-050). The description is as above.
Source text: as §1
For B1, the binding result is on record as “no binding”.

Take B2: the binding result was “no binding”.

On to B3, for which the binding result is recorded as “no binding”.

Another assay concerns the target T6, HER2-ECD DI Fc (human, UniProt P04626 23-217, limits assumed).
T6 construct: domain: domain 1; also called domain 1 of the extracellular domains of the HER2 protein; not shown: Hinge and Fc region (CH2-CH3) of human IgG1, at the C-terminus
In words: ELISA on plate-coated HER2 domain-Fc fusion (1 µg/mL), anti-human IgG-HRP, Abs 450 nm; antibody concentration not given. The protocol: (§2) The HER2-ECD DI Fc, HER2-ECD DII Fc, HER2-ECD DIII Fc, HER2-ECD DIV Fc and HER2-ECD Fc fusion proteins were immobilized at 4° C. overnight onto a Costar 96-well plate (Corning, Cat. No. 3590) at a concentration of 1 μg/mL […]. The resultant was washed 3 times with TBS-T (0.05% Triton X-100) and then blocked at room temperature for 1 hour with 100 μL of TBS-T/BSA (5% BSA). After washing the blocked plate 3 times and adding the anti-HER2 antibody, the antibody was allowed to bind at room temperature for 1 hour. After washing 3 times and then adding anti-human IgG-HRP diluted to 1:3,000 in TBS-T/BSA, as a secondary antibody, the antibody was allowed to bind at room temperature for 1 hour. After washing the resultant 3 times and adding TMB (SurModics, Cat. No. TMBC-1000-01), the mixture was allowed to develop color at room temperature for 5 minutes. Then, the color development was stopped by adding 1 N sulfuric acid (DukSan, Cat. No. 254). Absorbance was measured at 450 nm using Victor X3 (PerkinElmer, Cat. No. 2030-0030).
Consider B1, for which the binding result was “no binding”.

The next assay deals with T7, HER2-ECD DIII Fc (human, UniProt P04626 342-510, limits assumed).
T7 construct: domain: domain 3; also called domain 3 of the extracellular domains of the HER2 protein; not shown: Hinge and Fc region (CH2-CH3) of human IgG1, at the C-terminus
The assay is described as above. The protocol: as §2
For the molecule B2, the binding result was “no binding”.

In the case of B3, the binding result was “no binding”.
